Reference: patent publication US20180237508A1 (INTERNATIONA DRUG DEVELOPMENT BIOTECH, published 2018)
Ends that are not written are not given here.

T1: Unconjugated peptide 5 (human)
T1 peptide: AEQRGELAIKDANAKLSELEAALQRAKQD

T2: Unconjugated peptide 6 (human)
T2 peptide: AALQRAKQD

T3: Unconjugated peptide 7 (human)
T3 peptide: EAALQRAKQD

T4: Unconjugated peptide 8 (human)
T4 peptide: LEAALQRAKQD

T5: Unconjugated peptide 9 (human)
T5 peptide: ELEAALQRAKQD

T6: Unconjugated peptide 10 (human)
T6 peptide: SELEAALQRAKQD

T7: Unconjugated peptide 11 (human)
T7 peptide: LSELEAALQRAKQD

T8: Unconjugated peptide 12 (human)
T8 peptide: KLSELEAALQRAKQD

T9: Unconjugated peptide 13 (human)
T9 peptide: AKLSELEAALQRAKQD

T10: Unconjugated peptide 14 (human)
T10 peptide: NAKLSELEAALQRAKQD

T11: Unconjugated peptide 15 (human)
T11 peptide: ANAKLSELEAALQRAKQD

T12: Unconjugated peptide 16 (human)
T12 peptide: DANAKLSELEAALQRAKQD

T13: Unconjugated peptide 17 (human)
T13 peptide: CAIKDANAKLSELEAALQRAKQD

T14: Unconjugated peptide 18 (human)
T14 peptide: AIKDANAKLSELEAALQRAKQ

T15: Unconjugated peptide 19 (human)
T15 peptide: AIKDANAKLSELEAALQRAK

T16: Unconjugated peptide 20 (human)
T16 peptide: AIKDANAKLSELEAALQRA

T17: Unconjugated peptide 21 (human)
T17 peptide: AIKDANAKLSELEAALQR

T18: Unconjugated peptide 22 (human)
T18 peptide: AIKDANAKLSELEAALQ

T19: Unconjugated peptide 24 (human)
T19 peptide: AIKDANAKLSELEAA

T20: Unconjugated peptide 25 (human)
T20 peptide: AIKDANAKLSELEA

T21: Unconjugated peptide 26 (human)
T21 peptide: AIKDANAKLSELE

T22: Unconjugated peptide 27 (human)
T22 peptide: AIKDANAKLSEL

T23: Unconjugated peptide 28 (human)
T23 peptide: AIKDANAKLSE

T24: BSA conjugated peptide 3 (human, also: conjugated to BSA via the thiol of the C-terminal Cys)
T24 peptide: AALQRAKQDC(BSA)

T25: BSA conjugated peptide 4 (human, also: conjugated to BSA via the thiol of the C-terminal Cys)
T25 peptide: SELEAALQRAKQDC(BSA)

T26: BSA conjugated peptide 17 (human, BSA conjugated (the added cysteine is printed at the N-terminus))
T26 peptide: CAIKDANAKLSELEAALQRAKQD

T27: BSA conjugated peptide 1 (human, BSA coupled at the SH group of the C-terminal cysteine)
T27 peptide: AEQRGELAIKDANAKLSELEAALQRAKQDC

T28: BSA conjugated peptide 2 (human, BSA coupled at the SH group of the C-terminal cysteine)
T28 peptide: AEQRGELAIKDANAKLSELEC

B1: Unconjugated peptide 1 (peptide)
peptide: T27 peptide
B2: Murine monoclonal antibody D-A10 (antibody, V domains shown)
VH: EVQLLETGGGLVQPGGSRGLSCEGSGFTFSGFWMSWVRQTPGKTLEWIGDINSDGSAIKYAPSIKDRFTIFRDNDKSTLYLQMSNVRSEDTATYFCIAHYSGGGFAYWGQGTSVTVSS
VL: NIVMTQAAPSVPVTPGESVSISCRSSKSLLYSNGNTYLYWFLQRPGQSPQRLIYYMSNLASGVPDRFSGRGSGTDFTLRISRVEAEDVGVYYCMQSLEYPFTFGGGTKLEIK
notes: Murine IgG from a hybridoma, purified from ascitic fluid on protein A; also called mD-A10 Mab; mD-A10

How the values were obtained:
[1] = biological target: B2; experiment: flow cytometry competition, free peptide against biotinylated antibody on Isreco-1 cells
Experimental: 2.10⁵ Isreco-1 cells per 96-wells were incubated with a biotinylated antibody anti-CK8 (12.5 μg/mL) with or without peptide 1 or peptide 2 tested at different concentrations and incubated at 4° C. for 30 min. Unbound antibody was washed away with PBS (Invitrogen, Villebon sur Yvette, France) supplemented by 1% Bovine Serum Albumin (Sigma, St Quentin Fallavier, France). Subsequently, cells were centrifuged (5 min at 400 g) and bound antibody was detected with Phycoerythrin conjugated Streptavidin (Interchim, Montlucon, France) at 4° C. for 30 min. Detection reagent was washed away and cells were centrifuged (5 min at 400 g) and suspended in 300 μL PBS. Bound detection antibody was quantified on a FACS CAN (BD Biosciences, Rungis, France), (FL2 channel, 2 000 events per acquisition). During the experiment, the respective isotype controls were included to exclude any unspecific binding events. The presence of peptide 1 inhibits cell labelling with the mD-D6 or mD-A10 Mab without any significant impact on M20 Mab cellular staining.

Unconjugated peptide 1 = biological target: B1; experiment: ELISA, coated unconjugated peptide
Experimental: (§1) The CK8 peptides, coupled or not with the bovine serum albumin (BSA) at the SH group of the C-terminal cysteine, were immobilized (0.5 μg/ml or 1 μg/ml respectively) at the bottom of the wells of a 96 well plate overnight at room temperature. Unbound peptides are washed away with purified water supplemented by Tween (Sigma, St Quentin Fallavier, France). The wells are then saturated with a saline phosphate buffer solution (PBS) containing 5% BSA for 2 hours at room temperature (RT). Then the plates are washed away with purified water supplemented by Tween. The Mab binding to the coated peptides is tested at different Mab concentrations following an incubation for 2 hours at RT in PBS (Invitrogen, Villebon sur Yvette, France) supplemented by 1% Bovine Serum Albumin (Sigma, St Quentin Fallavier, France). Unbound Mabs are washed away with purified water supplemented by Tween. […] The absorbance is read at 450 nm and corrected at 630 nm. The specific requirements for the different experiments are detailed below.
(§2) The unconjugated peptides 1, 5 to 28 of human CK8 were immobilized (2 μg/ml) at the bottom of a 96-wells plate. Different Mab concentrations (from 10 μg/mL then diluted at 1/10) were incubated for 2 hours at room temperature alone or with each peptide tested. The optical density values (OD) was read at 450 nm and corrected at 630 nm. The results are shown in FIG. 13A (related to mD-A10) or on FIG. 13B (related to M20).

Unconjugated peptide 5 = biological target: T1, Unconjugated peptide 5; experiment: ELISA, coated unconjugated peptide
Experimental: as §1, §2

Unconjugated peptide 6 = biological target: T2, Unconjugated peptide 6; experiment: ELISA, coated unconjugated peptide
Experimental: as §1, §2

Unconjugated peptide 7 = biological target: T3, Unconjugated peptide 7; experiment: ELISA, coated unconjugated peptide
Experimental: as §1, §2

Unconjugated peptide 8 = biological target: T4, Unconjugated peptide 8; experiment: ELISA, coated unconjugated peptide
Experimental: as §1, §2

Unconjugated peptide 9 = biological target: T5, Unconjugated peptide 9; experiment: ELISA, coated unconjugated peptide
Experimental: as §1, §2

Unconjugated peptide 10 = biological target: T6, Unconjugated peptide 10; experiment: ELISA, coated unconjugated peptide
Experimental: as §1, §2

Unconjugated peptide 11 = biological target: T7, Unconjugated peptide 11; experiment: ELISA, coated unconjugated peptide
Experimental: as §1, §2

Unconjugated peptide 12 = biological target: T8, Unconjugated peptide 12; experiment: ELISA, coated unconjugated peptide
Experimental: as §1, §2

Unconjugated peptide 13 = biological target: T9, Unconjugated peptide 13; experiment: ELISA, coated unconjugated peptide
Experimental: as §1, §2

Unconjugated peptide 14 = biological target: T10, Unconjugated peptide 14; experiment: ELISA, coated unconjugated peptide
Experimental: as §1, §2

Unconjugated peptide 15 = biological target: T11, Unconjugated peptide 15; experiment: ELISA, coated unconjugated peptide
Experimental: as §1, §2

Unconjugated peptide 16 = biological target: T12, Unconjugated peptide 16; experiment: ELISA, coated unconjugated peptide
Experimental: as §1, §2

Unconjugated peptide 17 = biological target: T13, Unconjugated peptide 17; experiment: ELISA, coated unconjugated peptide
Experimental: as §1, §2

Unconjugated peptide 18 = biological target: T14, Unconjugated peptide 18; experiment: ELISA, coated unconjugated peptide
Experimental: as §1, §2

Unconjugated peptide 19 = biological target: T15, Unconjugated peptide 19; experiment: ELISA, coated unconjugated peptide
Experimental: as §1, §2

Unconjugated peptide 20 = biological target: T16, Unconjugated peptide 20; experiment: ELISA, coated unconjugated peptide
Experimental: as §1, §2

Unconjugated peptide 21 = biological target: T17, Unconjugated peptide 21; experiment: ELISA, coated unconjugated peptide
Experimental: as §1, §2

Unconjugated peptide 22 = biological target: T18, Unconjugated peptide 22; experiment: ELISA, coated unconjugated peptide
Experimental: as §1, §2

Unconjugated peptide 23 = Unconjugated peptide 23 (human); experiment: ELISA, coated unconjugated peptide
Experimental: as §1, §2

Unconjugated peptide 24 = biological target: T19, Unconjugated peptide 24; experiment: ELISA, coated unconjugated peptide
Experimental: as §1, §2

Unconjugated peptide 25 = biological target: T20, Unconjugated peptide 25; experiment: ELISA, coated unconjugated peptide
Experimental: as §1, §2

Unconjugated peptide 26 = biological target: T21, Unconjugated peptide 26; experiment: ELISA, coated unconjugated peptide
Experimental: as §1, §2

Unconjugated peptide 27 = biological target: T22, Unconjugated peptide 27; experiment: ELISA, coated unconjugated peptide
Experimental: as §1, §2

Unconjugated peptide 28 = biological target: T23, Unconjugated peptide 28; experiment: ELISA, coated unconjugated peptide
Experimental: as §1, §2

BSA conjugated peptide 3 = biological target: T24, BSA conjugated peptide 3; experiment: ELISA, coated BSA conjugated peptide
Experimental: as §1
(§3) Different Mab concentrations (from 10 μg/mL then diluted at 1/10) were incubated for 2 hours at room temperature with either the peptide 1, peptide 2, peptide 3, peptide 4 or peptide 17. The optical density values (OD) was read at 450 nm and corrected at 630 nm.

BSA conjugated peptide 4 = biological target: T25, BSA conjugated peptide 4; experiment: ELISA, coated BSA conjugated peptide
Experimental: as §1, §3

[2] = biological target: T26, BSA conjugated peptide 17; experiment: ELISA, coated BSA conjugated peptide
Experimental: as §1, §3

BSA conjugated peptide 1 = biological target: T27, BSA conjugated peptide 1; experiment: ELISA, coated BSA conjugated peptide
Experimental: as §1, §3

BSA conjugated peptide 2 = biological target: T28, BSA conjugated peptide 2; experiment: ELISA, coated BSA conjugated peptide
Experimental: as §1, §3

Binder: B1
binding result [1]: binds

Binder: B2
binding result (Unconjugated peptide 1): binds | binding result (Unconjugated peptide 5): binds | binding result (Unconjugated peptide 6): no binding (tested: from 10 ug/mL then diluted at 1/10) | binding result (Unconjugated peptide 7): no binding (tested: from 10 ug/mL then diluted at 1/10) | binding result (Unconjugated peptide 8): no binding (tested: from 10 ug/mL then diluted at 1/10) | binding result (Unconjugated peptide 9): no binding (tested: from 10 ug/mL then diluted at 1/10) | binding result (Unconjugated peptide 10): no binding (tested: from 10 ug/mL then diluted at 1/10) | binding result (Unconjugated peptide 11): binds | binding result (Unconjugated peptide 12): binds | binding result (Unconjugated peptide 13): binds | binding result (Unconjugated peptide 14): binds | binding result (Unconjugated peptide 15): binds | binding result (Unconjugated peptide 16): binds | binding result (Unconjugated peptide 17): binds | binding result (Unconjugated peptide 18): binds | binding result (Unconjugated peptide 19): binds | binding result (Unconjugated peptide 20): binds | binding result (Unconjugated peptide 21): binds | binding result (Unconjugated peptide 22): binds | binding result (Unconjugated peptide 23): binds | binding result (Unconjugated peptide 24): no binding (tested: from 10 ug/mL then diluted at 1/10) | binding result (Unconjugated peptide 25): no binding (tested: from 10 ug/mL then diluted at 1/10) | binding result (Unconjugated peptide 26): no binding (tested: from 10 ug/mL then diluted at 1/10) | binding result (Unconjugated peptide 27): no binding (tested: from 10 ug/mL then diluted at 1/10) | binding result (Unconjugated peptide 28): no binding (tested: from 10 ug/mL then diluted at 1/10) | binding result (BSA conjugated peptide 3): no binding (tested: from 10 ug/mL then diluted at 1/10) | binding result (BSA conjugated peptide 4): binds | binding result [2]: binds | binding result (BSA conjugated peptide 1): binds | binding result (BSA conjugated peptide 2): no binding (tested: from 10 ug/mL then diluted at 1/10)
